Experimental findings from US20100331262A1 (KAGOSHIMA UNIVERSITY, published 2010) are described below.

Sequences and labels used below:
B1: pepD1-L13 (peptide)
peptide: GNTLLDTLVPLI
B2: pepD1-L5 (peptide)
peptide: GSPFLDLLAPAA
notes: also called pepD1-L9; pepD1-L5, L9
B3: pepD1-L7 (peptide)
peptide: SILDILSPRLAE
B4: pepB7-C15 (peptide)
peptide: CYGTKPWMC
notes: also called pepB6-C2, C5, C6, C7, C8, C9, C10, and C15; pepD1-C5, C7, and C20
B5: pepD1-C2 (peptide)
peptide: CYGTEPWMC
notes: also called pepD1-C13; pepD1-C2, C13
B6: pepD1-C18 (peptide)
peptide: CFGHEPWMC
B7: pepD1-C11 (peptide)
peptide: CFGHKPWMC
B8: pepD1-C3 (peptide)
peptide: CQGHLPWMC
B9: pepD1-L20 (peptide)
peptide: NPLDFYAPSILP
B10: pepD1-C8 (peptide)
peptide: CFGRLPWMC
B11: pepD1-C10 (peptide)
peptide: CFGSLPWMC
B12: pepD1-L6 (peptide)
peptide: SSIIDILLPPIY
B13: unrelated control peptide (GSGGGSCGYWRSEWGLCG) (peptide)
peptide: GSGGGSCGYWRSEWGLCG
notes: also called unrelated peptide
B14: pepB6-L1 (peptide)
peptide: GMLDIFAPIRHV
B15: pepB6-L10 (peptide)
peptide: TSPILDVLTPPR

T3 sequence (VH, as listed by the source, chain 1 of 2): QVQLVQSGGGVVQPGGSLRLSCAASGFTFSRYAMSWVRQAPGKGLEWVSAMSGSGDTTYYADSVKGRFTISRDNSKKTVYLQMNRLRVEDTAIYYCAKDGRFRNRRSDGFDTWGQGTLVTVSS
T3 sequence (VL, as listed by the source, chain 2 of 2): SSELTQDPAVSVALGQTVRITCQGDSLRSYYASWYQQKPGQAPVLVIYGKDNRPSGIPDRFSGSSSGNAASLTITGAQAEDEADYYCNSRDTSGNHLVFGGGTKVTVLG

For the first assay, the target named is T1, D1 scFv.
T1 construct: also called clone D1 of WO 2005/105998
T1 sequence (VH, as listed by the source, chain 1 of 2): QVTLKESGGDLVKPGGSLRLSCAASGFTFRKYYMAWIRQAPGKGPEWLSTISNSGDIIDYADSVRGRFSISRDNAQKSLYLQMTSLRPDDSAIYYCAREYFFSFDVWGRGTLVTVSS
T1 sequence (VL, as listed by the source, chain 2 of 2): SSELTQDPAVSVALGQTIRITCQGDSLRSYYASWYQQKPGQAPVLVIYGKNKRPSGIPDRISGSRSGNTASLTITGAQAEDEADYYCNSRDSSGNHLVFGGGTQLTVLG
As to the kind of experiment: phage panning on coated scFv, clones confirmed by phage ELISA.
On to B1, for which the binding result is given as “binds”. Same read-out and setting: next, B2: “binds”. Take B3: the binding result is “binds”. As to B4, the binding result is listed as “binds”.

B5: the binding result is reported as “binds”. On to B6, for which the binding result is on record as “binds”. Still for that read-out and setting: then B7, with “binds”; and B8, with “binds”; and B9, with “binds”. As for B10, the binding result was “binds”. Still for that read-out and setting: then B11, with “binds”; and B12, with “binds”.

For another assay, the target named is T2, B7 scFv.
T2 construct: also called clone B7 of WO 2005/105998
T2 sequence (VH, as listed by the source, chain 1 of 2): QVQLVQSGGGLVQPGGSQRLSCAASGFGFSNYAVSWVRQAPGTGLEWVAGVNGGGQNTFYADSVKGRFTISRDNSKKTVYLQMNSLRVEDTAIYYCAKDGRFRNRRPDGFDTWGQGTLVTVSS
T2 sequence (VL, as listed by the source, chain 2 of 2): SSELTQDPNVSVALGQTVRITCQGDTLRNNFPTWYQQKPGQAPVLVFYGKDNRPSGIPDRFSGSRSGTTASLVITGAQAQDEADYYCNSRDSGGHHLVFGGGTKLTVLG
The description is as above.
As to B4, the binding result is “binds”.

Another assay concerns the target T3, B6 scFv.
T3 construct: also called clone B6 of WO 2005/105998
Described as above.
With B4, the binding result is listed as “binds”.

The next assay deals with T4, Aβ oligomers or Aβ fibers formed 1.5 hours after the dissolution of Aβ1-42 (UniProt P05067 672-713).
T4 construct: domain: Aβ1-42; Aggregated conformers of Aβ1-42 after 1.5 h at 40 µM in 20 mM phosphate buffer pH 7.0; The number of copies is not defined; also called Aβ conformers (Aβ oligomers and Aβ fibers)
T4 sequence (P05067 672-713 limits assumed): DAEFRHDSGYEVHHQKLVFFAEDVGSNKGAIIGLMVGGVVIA
Description: precipitation with streptavidin-magnet beads, Western blot with anti-Aβ antibodies.
Take B13: the binding result is “no binding”.

The next assay addresses T3, B6 scFv. Description: phage panning and phage ELISA on coated scFv.
B14: the binding result is “binds”.

On to B15, for which the binding result is reported as “binds”.
